Test results as given in PMC10514341, “Organisation of the orthobunyavirus tripodal spike and the structural changes induced by low pH and K^+ during entry” (Nature Communications, 2023).

Molecular target: the molecule itself
Experiment: cryo-EM structure; cryo-electron tomography and subtomogram averaging (PEET, C3 symmetry) of glycoprotein spikes on purified BUNV virions, pH 7.3/no K+, 2 hr at 37 °C; tripod average ~16 Å, floor average ~13 Å (GS-FSC); X-ray head/stalk structures and an AlphaFold Gn-Gc model fitted into the maps

B1: Bunyamwera virus (BUNV) glycoprotein Gc (natural protein)
chain: EEDCWKNEELKEDCVGPLIAPKDCTDKDHKTYLSEASLLATAKKITQVDAENVEILGKTMESAIRVIERQKTYHRMHLLEAVFLNKHCDYYKMFEHNSGYSQVKWRMMIKTQHFDICALQANSPFCAQCIADNSCAQGSWEFDTHMNSTYSSKVDNFKHDFSLFLRIFEAAFPGTAYVHLLTNIKEKKPYQAVSMIEKIKKKFPNNKLLIGYLDFGKYLLGLSHASTYELQQRQLDKLYQPTELTRSGGQQTSLANSVVGQATKECKKYKDVSCLSPRFGIPLEDLISCCDQPNYNIYKKPKKVYKAHDKEETWCINDQHCLVDFVPAEADTVEKLKPMKCWLVDPGKNDDVYSIAIKTCRVVDKGVCTVNSQKWNIIKCDSGPLYYSDHIPGEDTGNDIGHYCVSAGCKTDRYPINPDVVTDCVWEFTSRKSQYIGKISMQSLEDYEKALTDRLTHTLETYSFAPLENLPHIKPVYKYITAQGVENSDGIEGAFITASIPAAGGTSIGYNVRSKDGFPLLDLIVFVKSAVIKSTYNHIYDTGPTISINTKHDEHCTGQCPSNIEHEANWLTFSQERTSRWGCEEFGCLAVNTGCVFGSCQDVIRPETKVYRKAVDEVVILTVCITYPGHTFCTEINAIEPKITEEIELQFKTVDTKTLPYIVAVNNHKLYSGQINDLGTFGQMCGNVQKTNSSILGTGTPKFDYTCHGASRKDIIVRRCYNNNFDSCKLLKEETQLIFNDDHDTITVYNTNHLIGELAIKLILGDIQYKLFTETLDLQIDAKCVGCPDCFESYSCNFQIVSNIDTICSLEGPCDTFHNRISIKAMQQNYAVKLSCQKDPRPSGTFKICNREYTVVFHTVAKDDKIEINVGDQTSFIKEKDDRCKTWLCRVRDEGISVIFEPIKAFFGSYFSIFFYIIVVVVVGFLIIYIFMPMFMKLKEVLKANEKLYLQEIKQK
modifications: N-linked glycan at N624
notes: Glycoprotein Gc of Bunyamwera virus, cut from the M segment polyprotein (Gn-NSm-Gc); ectodomain 478-1382; head, stalk and floor (fusion domain) regions; membrane-anchored in the virion envelope; Native Gc in the envelope of purified virions; also called BUNV Gc
stoichiometry N: 3

B2: Bunyamwera virus (BUNV) glycoprotein Gn (natural protein, UniProt P04505 17-302, looked up)
chain: SPVITRCFHGGQLIAERKSQTSISEFCIKDDVSMLKSEIVYTKNDTGIFGHSKVFRHWTITDWKACNPVVTAGGSINVIEVDKNLNLVTRNYVCTGDCTITVDRKNAQIIFQTDKLNHFEVTGTTISTGWFKSKASVTLDRTCEHIKVSCGKKTLQFHACFKQHMSCVRFLHRSILPGSMAISICQNIELIIITILALCIFIIMIILTKTYICYVLIPVFMPIAFAYGWAYNRSCKKCTCCGLAYHPFTNCGSYCVCGSKFETSDRMRMHRESGLCQGFKSLRVAR
modifications: N-linked glycan at N60
notes: Glycoprotein Gn of Bunyamwera virus, cut from the M segment polyprotein (Gn-NSm-Gc); ectodomain 17-205; membrane-anchored in the virion envelope; Native Gn in the envelope of purified virions; also called BUNV Gn
stoichiometry N: 3
